What is called Kd is the free concentration of one partner at which half of the binding sites on the other are occupied at equilibrium, for simple one-to-one binding. As usually defined, the IC50 is the concentration at which inhibition is half-maximal. For orientation: koff means a measure of how fast the partners let go of each other. What is called kon is the rate constant with which the complex forms.

Numbering of substitutions follows the chain as printed. “And” between values parts separate entries of the source, which are not always exact repeats. Identical values can stand only once.

Here are results for eleven molecules from patent publication US20170260266A1 (GlaxoSmithKline, published 2017).

Assay [1] has as its target T1, full length (mature) human TSLP, recombinant (human, UniProt Q969D9 29-159, biotinylated in the SPR assay on the SA chip). Briefly: cell-based or functional assay.
Assay [2] has as its target T1, full length (mature) human TSLP, …. Put plainly: SPR, biotinylated TSLP on SA chip (Biacore 4000). (In general: In SPR one partner is held on a chip, and binding of the other changes the refractive index at the surface.)
Assay [3] shares this target. Briefly: ELISA RBA, geometric mean. (In general: In an ELISA, binding on a coated surface is turned into a signal by an enzyme label.)
For assay [4] the target is unchanged. Put plainly: SPR, biotinylated TSLP on SA chip; value excluding 1000 nM concentration.
Assay [5] shares this target. Put plainly: SPR, biotinylated TSLP on SA chip; all concentrations (footnote 1).
For assay [6], the target named is T2, native human TSLP (supernatant from stimulated human lung fibroblasts) (human, UniProt Q969D9 29-159).
T2 construct: also called native TSLP
Briefly: TSLP receptor binding assay (RBA, ELISA, OD 450 nm): dAb titrated against native human TSLP (supernatant of stimulated human lung fibroblasts); blocked is the binding of TSLP to the plate-coated TSLP receptor complex.

The target in assay [7] is glycosylated recombinant human TSLP expressed from HEK cells (human, UniProt Q969D9 29-159, glycosylated). Briefly: cell-based or functional assay.
Assay [8] has as its target T1, full length (mature) human TSLP, …. Briefly: RBA, geometric mean (n = 2).
Assay [9] shares this target. Briefly: SPR with biotinylated TSLP; mean of two experiments.
Assay [10] has as its target T3, short form TSLP (synthetic biotinylated 63 amino acid peptide comprising residues 69-131 of mature full … (human, biotinylated (position not given))).
T3 construct: also called sfTSLP; sf TSLP
Briefly: ForteBio Octet, biotinylated sfTSLP on streptavidin tips. For orientation: BLI is a label-free optical method that tracks binding on a fibre tip over time.

Assay [11] concerns the target T2, native human TSLP (supernatant from …). Briefly: cell-based or functional assay.
Assay [12] has as its target T1, full length (mature) human TSLP, …. Briefly: cell-based or functional assay. This is another data set of the same source.
For assay [13] the target is unchanged. Put plainly: TSLP receptor binding assay (RBA, ELISA, OD 450 nm): dAb titrated against recombinant human TSLP (1 ng/ml); blocked is the binding of TSLP to the plate-coated TSLP receptor complex.
In a further assay the target is T4, human IL-7 (human, UniProt P13232 26-177).
T4 construct: Immobilised on a CM4 chip by primary amine coupling; also called Mature processed human IL-7
T4 sequence: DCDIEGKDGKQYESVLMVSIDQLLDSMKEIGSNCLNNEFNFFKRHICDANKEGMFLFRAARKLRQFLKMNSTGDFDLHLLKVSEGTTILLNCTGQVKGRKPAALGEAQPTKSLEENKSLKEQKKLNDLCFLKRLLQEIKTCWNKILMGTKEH
Put plainly: SPR (Biacore).

Assay [14] concerns the target T1, full length (mature) human TSLP, …. Put plainly: cell-based or functional assay. The source holds these as a separate data set.

T3 sequence (peptide, as listed by the source): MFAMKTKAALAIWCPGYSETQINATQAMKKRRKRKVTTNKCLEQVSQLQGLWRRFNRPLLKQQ

B1: DOM30h-440-65 (other)
VL: DIQMTQSPSSLSASVGDRVTITCRASRPIRNWLDWYQQKPGKAPKLLIWGASHLQSGVPSRFSGSGSGTDFTLTISSLQPEDFATYYCMQIGEDPVTFGQGTKVEIKR
Regarding B1, in assay [1], the “pSTAT5 assay in SW756 cells, Geometric Mean IC50” value (shortened to “pSTAT5 assay in SW756 cells”) was determined as 0.78 nM. The Kd in [2] is 3.84 nM. The IC50 in assay [3] amounted to 0.69 nM.

B2: DOM30h-440-58 (other)
VL: B1 VL with M89L, G92A, E93D
For the molecule B2, the “pSTAT5 assay in SW756 cells” value in [1] was 1.91 nM. Also, the dissociation constant (Kd) in assay [2] was found to be 2.65 nM. Moreover, in [3], the IC50 is 1.41 nM.

B3: DOM30h-440-54 (other)
VL: B1 VL with M89W, I91L, G92A, E93F, V96T
For B3, in assay [1], the “pSTAT5 assay in SW756 cells” value is 1.52 nM. In assay [2], the Kd amounted to 3.82 nM. The IC50 in assay [3] worked out at 2.15 nM.

B4: DOM30h-440-63 (other)
VL: B1 VL with E93S
On to B4, for which the “pSTAT5 assay in SW756 cells” value in assay [1] was 2.21 nM. For the same molecule, in assay [2], the Kd was 4.22 nM. The IC50 in assay [3] was found to be 1.55 nM.

B5: DOM30h-440-64 (other)
VL: B1 VL with M89L
As for B5, the “pSTAT5 assay in SW756 cells” value in assay [1] worked out at 3.26 nM. Moreover, the Kd in assay [2] is 6.17 nM. In assay [3], the IC50 was determined as 0.95 nM.

B6: DOM30h-440-53 (other)
VL: B1 VL with M89L, I91V
With B6, the “pSTAT5 assay in SW756 cells” value in [1] stood at 1.92 nM. For the same molecule, the equilibrium dissociation constant (Kd) in assay [2] was determined as 3.05 nM. Further, the IC50 in assay [3] came to 2 nM.

B7: DOM30h-440-56 (other)
VL: B1 VL with I75V
For the molecule B7, in [1], the “pSTAT5 assay in SW756 cells” value is 0.99 nM. Besides, in assay [2], the Kd was found to be 2.47 nM. Besides, the IC50 in assay [3] stood at 0.56 nM.

B8: DOM30h-440-57 (other)
VL: B1 VL with K45E, E93D
Take B8: the Kd in assay [4] stood at 1.5 nM; in [5], 3.48 nM. The “pSTAT5 assay in SW756 cells” value in assay [1] was found to be 0.56 nM. In assay [3], the IC50 was 0.34 nM.

B9: DOM30h-440-55 (other)
VL: B1 VL with M89V
As to B9, the “pSTAT5 assay in SW756 cells” value in assay [1] was 1.1 nM. In addition, in [2], the Kd came out at 2.78 nM. Also, the IC50 in assay [3] was 0.87 nM.

B10: DOM30h-440-60 (other)
VL: B1 VL with M89I, I91F
Take B10: in assay [1], the “pSTAT5 assay in SW756 cells” value came to 0.7 nM. Moreover, the Kd in [2] turned out to be 0.14 nM. Further, in [3], the IC50 is 0.32 nM.

B11: DOM30h-440-81/86 (other)
VL: DIQMTQSPSSLSASVGDRVTITCRASRPIRNWLDWYQQKPGKAPKLLIWGASHLQSGVPSRFSGSGSGTDFTLTISSLQPEDFATYYCVQIGEDPVTFGQGTKVEIK
notes: Vk single variable domain (dAb); DOM30h-440-55 with the C-terminal R removed (-R); also called DOM30h-440-86; TSLP dAb
In the case of B11, in assay [6], the “IC50 (read off the curve)” value was about 0.1 nM. In addition, in assay [7], the “Inhibition of TSLP-induced TARC in whole blood, Geometric Mean IC50 (n = 6)” value was found to be 3.1 nM and the “Inhibition of TSLP-induced pSTAT5 in SW756 cells, Geometric Mean IC50 (n = 3)” value worked out at 0.55 nM. Besides, in assay [8], the IC50 is 1.94 nM. In assay [9], the equilibrium dissociation constant (Kd) was 0.867 nM and 0.87 nM; the koff stood at 0.000508 s⁻¹; the association rate constant (kon) turned out to be 619000 M⁻¹ s⁻¹. Further, in assay [10], the binding result is reported as “no binding”. Also, in assay [11], the “native TSLP-induced STAT5 phosphorylation in SW756 cells, Geometric Mean IC50” value was determined as 0.86 nM. In addition, in assay [12], the “IL-5 production from human PBMC stimulated with a mixture of TSLP, IL-33 and IL-25, Geometric Mean IC50” value came to 129 nM. Moreover, in assay [13], the “IC50 (read off the curve)” value is about 4 nM. In addition, the binding result with human IL-7 is recorded as “no binding”. Also, in [14], the “Inhibition of TSLP-induced TARC in whole blood, Geometric Mean IC50 (n = 7)” value was determined as 2.4 nM and the “Inhibition of TSLP-induced pSTAT5 in SW756 cells, Geometric Mean IC50 (n = 5)” value worked out at 1.92 nM.
